In the RNAGym collection of RNA variant scans (doi:10.1093/molbev/msab373) one finds reverse-splicing fitness data, which are given here for 83 variants.

Sequences and labels used below:
B1: Azoarcus group I ribozyme (parent)
chain: GUGCCUUGCGCCGGGAAACCACGCAAGGGAUGGUGUCAAAUUCGGCGAAACCUAAGCGCCCGCCCGGGCGUAUGGCAACGCCGAGCCAAGCUUCGGCGCCUGCGCCGAUGAAGGUGUAGAGACUAGACGGCACCCACCUAAGGCAAACGCUAUGGUGAAGGCAUAGUCCAGGGAGUGGCGAAAGUCACACAAACCGG

In this series the parent is B1. Briefly: reverse-splicing fitness (ratio to wild type); higher = more active; in vitro selection; Mg2+ level not given. An outline of the steps: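 An in vitro group I ribozyme library with randomized positions was T7-transcribed and gel-purified. In triplicate, 10 pmol RNA in EPPS pH 7.5 was reacted with 50 pmoles of a 30-nt RNA substrate for 1 h at 37 °C across several added MgCl2 levels (1–48 mM), then stopped with EDTA. Products were reverse transcribed from a substrate-complementary primer, PCR-amplified and sequenced (HiSeq 4000). Fitness is a variant's read proportion after selection over that before, normalised to wild type.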
As for C82U A111C A120C C169G U176G, the reverse-splicing fitness came to 0.00563.
For C82G A120C A145C C150A U176C the value was 0.0118; for A111U A120G C150A C169U, 0.0186.
For C82G A111G A120U A145C C150U C169U the value was 0.00328.
Next, A111C A120U A145C: 0.598; C82U A111G A145C C150G: 0.0393; A111G A120U C150A C169U U176G: 0.00282.
Regarding A120G A145U C150G C169A U176A, the reverse-splicing fitness came to 0.0196.
Next, A120G A145U C150G C169A U176G: 0.00439; C82U A111C A120G A145C C150G C169A U176A: 0.00754; C82U A111U A120U C150U: 0.0175.
With C82G A111G A120C A145C C150G C169A U176A, the reverse-splicing fitness was 0.0108.
As for C82G A120C C150A C169U, the reverse-splicing fitness came to 0.0118.
Next, C82A A145C C150U C169G: 0.00747; C82A A111C A120U A145C C150G C169U U176C: 0.00347; C82G A111U A120C C150G U176C: 0.009.
For C82G A120C A145C C150G C169G U176G the value was 0.00536; for C82U A111G A120C A145U U176C, 0.0251; for C82U A111G A120G A145C C150U, 0.00813.
As for C82A A145C C150G C169G U176A, the reverse-splicing fitness was 0.00895.
Next, C82G A111U A120C A145G C150A C169G U176C: 0.0297; C82G A111G A145G C150A C169G U176A: 0.0196; A111U A145U C150G U176A: 0.138.
Regarding A111U A120C A145G U176A, the reverse-splicing fitness is 0.246.
For C82G A111C A120U A145U C150G C169U U176C the value was 0.00292; for A120U A145G U176G, 0.342.
For C82G A111G A120U A145G C150U C169U U176C the value was 0.00574; for C82U A111U A120U A145G C150A U176C, 0.00627.
On to C82G A111U A120C A145G C150A C169U U176G, for which the reverse-splicing fitness is 0.00802.
As to C82U C150G C169U, the reverse-splicing fitness was 0.00789.
For A111C A120G A145C C150A C169U U176G the value was 0.00392.
For C82A A120G A145G C150A C169U U176C the value was 0.0185.
For C82U A120G C150A U176G the value was 0.00583; for C82A A111G A120G C169G U176C, 0.0229.
For the variant C82G A111G A120U A145U C150A C169G U176C, the reverse-splicing fitness was found to be 0.00301.
Next, C82A A111G A120C A145C C169U U176C: 0.0138.
For A111G A120U A145C C150A C169U U176A the value was 0.00311.
Next, C82G A111G A120C A145C C150A C169G: 0.00899; A111C A120C C150A U176C: 0.0495.
Regarding A111G A120G A145U C169G, the reverse-splicing fitness was 0.33.
For C82A A145C C150A U176G the value was 0.0123; for C82G A111U A145G C169G U176C, 0.0258.
For A111U A120U A145C C169G the value was 0.0459; for A111U A145C C169U U176G, 0.0061; for C82A A120G A145U C150A C169U, 0.0066.
For C82U A111C A120G C150G C169A U176G the value was 0.0058; for C82G A120G A145U C150A C169A U176G, 0.00465; for C82U A111C A120U A145C C150G C169U U176C, 0.00284.
Turning to C82U A111G A145G C169A U176C, the reverse-splicing fitness was 0.022.
Consider A120G C150U C169G U176G, for which the reverse-splicing fitness is 0.00753.
For A120G C169U U176C the value was 0.204.
Next, C169G U176A: 0.0721; C82G A145C C169G U176C: 0.011; C82U A111U A120G A145U C150G C169U U176A: 0.0116.
For C82A A111C A120U C150A U176A the value was 0.00497; for C82G A111C A120U A145U C169G U176A, 0.00269.
For C82U A111C A120G C150U C169U U176C, the reverse-splicing fitness came out at 0.014.
For C82U A111G A120C A145C C150G U176C, the reverse-splicing fitness was found to be 0.00742.
Next, A120C A145G C169U U176G: 0.015.
Next, C82A A111U A145U C169U: 0.0125; C82G A111C A120U C169A: 0.00474; C82A A111U A120C A145G C150U C169G U176C: 0.0201.
For C82A A111U A120G A145C the value was 0.0126; for C82U A111U A120C A145U C150G C169A U176C, 0.00923.
On to C82U A111C A120U A145C C169A, for which the reverse-splicing fitness worked out at 0.00236.
Next, A120C A145C C150A C169G U176A: 0.0166; A120C A145C C150A C169G U176C: 0.00769.
On to A111C A145U C169U U176C, for which the reverse-splicing fitness stood at 0.0282.
Next, C82U A111C A145U C150G C169U U176C: 0.0119; A120C A145U C169U U176C: 0.187.
Next, C82U A111G A120G A145G C150G U176G: 0.00546.
For C82G A120C A145U C150G C169U U176G the value was 0.00547; for C82A A111U A145C U176C, 0.126; for C82A A111U C169G U176G, 0.00658.
With C82A A111U A120C A145G C150G C169U U176C, the reverse-splicing fitness came out at 0.0129.
For C82A C169U U176G the value was 0.00459.
For A111G A145C U176G the value was 0.448.
For C82A A111C A120U A145C C150A U176A the value was 0.00393.
Turning to C82A A111C C150U C169G U176A, the reverse-splicing fitness was found to be 0.013.
With C82U A111G A120G A145U C150U U176C, the reverse-splicing fitness is 0.0124.
For C82A A111C A120U C150A C169A U176G the value was 0.00277; for C82A A111G A120U A145C U176C, 0.0111.
Consider C82G A111G A120G A145G C169A U176C, for which the reverse-splicing fitness was determined as 0.0235.
